# From US10239925B2, “Peptides and combination of peptides for use in immunotherapy against ovarian cancer and other cancers” (IMMATICS BIOTECHNOLOGIES GMBH, priority 2015, dated 2019)
# Target: HLA-A*02:01 (Homo sapiens, UniProt P04439, D140Y/D185E/D98H/E176V/E277Q/G131W/G231S/I119V/I121R/I166T/I218V/L300P/L318F/N151K/N90K/P208A/P217A/Q86G/Q94H/R138H/R169H/T345S)
# Assay: MHC binding assay (UV-ligand exchange, anti-β2m ELISA, peptide exchange yield)
# Conditions: binding to HLA-A*02:01
# Text: Candidate peptides for T cell based therapies according to the present invention were further tested for their MHC binding capacity (affinity). The individual peptide-MHC complexes were produced by UV-ligand exchange, where a UV-sensitive peptide is cleaved upon UV-irradiation, and exchanged with the peptide of interest as analyzed. Only peptide candidates that can effectively bind and stabilize the peptide-receptive MHC molecules prevent dissociation of the MHC complexes. To determine the yield of the exchange reaction, an ELISA was performed based on the detection of the light chain (β2m) of stabilized MHC complexes. The assay was performed as generally described in Rodenko et al. (Rodenko et al., 2006).
# 96 well MAXISorp plates (NUNC) were coated over night with 2 ug/ml streptavidin in PBS at room temperature, washed 4× and blocked for 1h at 37° C. in 2% BSA containing blocking buffer. […] Peptide-MHC monomers of the UV-exchange reaction were diluted 100 fold in blocking buffer. Samples were incubated for 1 h at 37° C., washed four times, incubated with 2 ug/ml HRP conjugated anti-β2m for 1h at 37° C., washed again and detected with TMB solution that is stopped with […]. Absorption was measured at 450 nm. Candidate peptides that show a high exchange yield (preferably higher than 50%, most preferred higher than 75%) are generally preferred for a generation and production of antibodies or fragments thereof, and/or T cell receptors or fragments thereof, as they show sufficient avidity to the MHC molecules and prevent dissociation of the MHC complexes.
row,Substance,"Peptide exchange (MHC class I binding score, peptide exchange yield)"
1,507 (KLIDDQDISISL; listed as Homo sapiens) [compound 507],“+++” (>50 = +++)
2,619 (ALQDRVPLA; listed as Homo sapiens) [compound 619],“+++” (>50 = +++)
3,436 (HLAEVSAEV; listed as Homo sapiens) [compound 436],“+++” (>50 = +++)
4,245 (SMIDDLLGV; listed as Homo sapiens) [compound 245],“+++” (>50 = +++)
5,578 (FLDPGGPMMKL; listed as Homo sapiens) [compound 578],“+++” (>50 = +++)
6,351 (SLIPNLRNV; listed as Homo sapiens) [compound 351],“+++” (>50 = +++)
7,583 (ILANDGVLLAA; listed as Homo sapiens) [compound 583],“+++” (>50 = +++)
8,588 (SLLPLSHLV; listed as Homo sapiens) [compound 588],“+++” (>50 = +++)
9,201 (RLVDYLEGI; listed as Homo sapiens) [compound 201],“+++” (>50 = +++)
10,500 (SLMEDQVLQL; listed as Homo sapiens) [compound 500],“+++” (>50 = +++)
11,85 (KMSELRVTL; listed as Homo sapiens) [compound 85],“+++” (>50 = +++)
12,551 (KLYESLLPFA; listed as Homo sapiens) [compound 551],“+++” (>50 = +++)
13,33 (VLLSLLEKV; listed as Homo sapiens) [compound 33],“++” (>20% = ++)
14,218 (SALEELVNV; listed as Homo sapiens) [compound 218],“++” (>20% = ++)
15,229 (RLPGPLGTV; listed as Homo sapiens) [compound 229],“++” (>20% = ++)
16,238 (YLISFQTHI; listed as Homo sapiens) [compound 238],“+++” (>50 = +++)
17,298 (VMITKLVEV; listed as Homo sapiens) [compound 298],“+++” (>50 = +++)
18,89 (YILPTETIYV; listed as Homo sapiens) [compound 89],“++++” (>75% = ++++)
19,86 (NLIGKIENV; listed as Homo sapiens) [compound 86],“+++” (>50 = +++)
20,464 (ALNDCIYSV; listed as Homo sapiens) [compound 464],“+++” (>50 = +++)
21,468 (YLRSVGDGETV; listed as Homo sapiens) [compound 468],“+++” (>50 = +++)
22,202 (ALLDQQGSRWTL; listed as Homo sapiens) [compound 202],“+++” (>50 = +++)
23,119 (FLYIGDIVSL; listed as Homo sapiens) [compound 119],“++++” (>75% = ++++)
24,566 (VIADGGIQNV; listed as Homo sapiens) [compound 566],“++” (>20% = ++)
25,382 (ALQNYIKEA; listed as Homo sapiens) [compound 382],“++” (>20% = ++)
26,524 (ALIENLTHQI; listed as Homo sapiens) [compound 524],“++” (>20% = ++)
27,219 (KLSDIGITV; listed as Homo sapiens) [compound 219],“+++” (>50 = +++)
28,190 (FLSSLTETI; listed as Homo sapiens) [compound 190],“+++” (>50 = +++)
